Results: patent US20220186239A1 (NINGBO UNIVERSITY, published 2022)

Target: T1, AD-T (UniProt P03070 87-708)
T1 construct: Commercial Y2H control prey; also called control prey
Test: yeast two-hybrid in Y2H Gold; growth on QDO and colour on QDO/X/A

B1: BD-Lam (other)
chain: MKLLSSIEQACDICRLKKLKCSKEKPKCAKCLKNNWECRYSPKTKRSPLTRAHLTEVESRLERLEQLFLLIFPREDLDMILKMDSLQDIKALLTGLFVQDNVNKDAVTDRLASVETDMPLTLRQHRISATSSSEESSNKGQRQLTVSSEEVVSREVSGIKAAYEAELGDARKTLDSVAKERARLQLELSKVREEFKELKARNTKKEGDLIAAQARLKDLEALLNSKEAALSTALSEKRTLEGELHDLRGQVAKLEAALGEAKKQLQDEMLRRVDAENRLQTMKEELDFQKNIYSEELRETKRRHETRLVEID
notes: Commercial Y2H negative control bait; also called negative control bait
binding result: no binding
